T1: recombinant human activated Factor VII (FVIIa) (human, UniProt P08709 61-212; P08709 213-466, ten glutamate residues of the Gla domain may be gamma-carboxylated)
T1 construct: chains tethered by a disulfide bond; also called Factor VIIa; rFVIIa
T1 sequence 1: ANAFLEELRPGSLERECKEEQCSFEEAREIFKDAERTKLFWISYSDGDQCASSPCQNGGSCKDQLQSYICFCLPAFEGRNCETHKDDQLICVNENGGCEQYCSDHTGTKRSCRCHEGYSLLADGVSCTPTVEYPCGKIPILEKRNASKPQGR
T1 sequence 2: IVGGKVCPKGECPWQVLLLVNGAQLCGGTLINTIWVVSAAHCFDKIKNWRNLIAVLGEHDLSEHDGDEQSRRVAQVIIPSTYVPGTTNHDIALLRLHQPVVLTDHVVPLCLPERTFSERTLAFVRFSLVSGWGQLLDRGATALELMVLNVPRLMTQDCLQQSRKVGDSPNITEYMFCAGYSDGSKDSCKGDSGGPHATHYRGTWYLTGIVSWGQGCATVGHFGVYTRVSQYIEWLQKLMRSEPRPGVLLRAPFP


Molecular target: T1, recombinant human activated Factor VII …
Assay: BLI (Fortebio)

Kd | Binder
1600 nM | VH SEQ ID NO 642 / VL SEQ ID NO 310 (antibody, IgG4, V domains shown, humanized 11F2; IgG4 S228P/kappa) VH: QVQLQESGPGLVKPSQTLSLTCTVSGYSISSDSAWSWIRQPPGKGLEWIGYIYYSGSTNYNPSLKSRVTISVDTSKNQFSLKLSSVTAADTAVYYCARSVNYYGNSFAVGYWGQGTSVTVSS VL: EIVLTQSPATLSLSPGERATLSCRASQGISDYLAWYQQKPGQAPRLLIKYASQPATGIPARFSGSGSGTDFTLTISSLEPEDFAVYYCQNGHSFPLTFGQGTKLEIK
1.1 nM | VH SEQ ID NO 650 / VL SEQ ID NO 326 (antibody, IgG4, V domains shown, humanized 11F2; IgG4 S228P/kappa) VH: QVQLQESGPGLVKPSQTLSLTCTVSGYSISSDSAWSWIRQPPGKKLEWIGYIQYSGSTNYNPSLKSRVTISRDTSKNQFSLKLSSVTAADTAVYYCARSVNYYGNSFAVGPWGQGTLVTVSS VL: EIVLTQSPATLSLSPGERATLSCRASQGISDYLHWYQQKPGEAPRLLIKYTSQPATGIPARFSGSGSGTDFTLTISSLEPEDFGVYYCQNGHSFPLTFGAGTKLELK
120 nM | VH SEQ ID NO 642 / VL SEQ ID NO 350 (antibody, IgG4, V domains shown, humanized 11F2; IgG4 S228P/kappa) VH: QVQLQESGPGLVKPSQTLSLTCTVSGYSISSDSAWSWIRQPPGKGLEWIGYIYYSGSTNYNPSLKSRVTISVDTSKNQFSLKLSSVTAADTAVYYCARSVNYYGNSFAVGYWGQGTSVTVSS VL: EIVLTQSPATLSLSPGERATLSCRASQGISDYLHWYQQKPGQAPRLLIKYTSQPATGIPARFSGSGSGTDFTLTISSLEPEDFAVYYCQNGHSFPLTFGAGTKLELK
52 nM | VH SEQ ID NO 642 / VL SEQ ID NO 462 (antibody, IgG4, V domains shown, humanized 11F2; IgG4 S228P/kappa) VH: QVQLQESGPGLVKPSQTLSLTCTVSGYSISSDSAWSWIRQPPGKGLEWIGYIYYSGSTNYNPSLKSRVTISVDTSKNQFSLKLSSVTAADTAVYYCARSVNYYGNSFAVGYWGQGTSVTVSS VL: EIVLTQSPATLSLSPGERATLSCRASQGVSDYLHWYQQKPGQAPRLLIKYASQPATGIPARFSGSGSGTDFTLTISSLEPEDFAVYYCQNGHSFPLTFGAGTKLEIK
7.7 nM | VH SEQ ID NO 642 / VL SEQ ID NO 486 (antibody, IgG4, V domains shown, humanized 11F2; IgG4 S228P/kappa) VH: QVQLQESGPGLVKPSQTLSLTCTVSGYSISSDSAWSWIRQPPGKGLEWIGYIYYSGSTNYNPSLKSRVTISVDTSKNQFSLKLSSVTAADTAVYYCARSVNYYGNSFAVGYWGQGTSVTVSS VL: EIVLTQSPATLSLSPGERATLSCRASQGVSDYLHWYQQKPGQAPRLLIKYASQPATGIPARFSGSGSGTDFTLTISSLEPEDFGVYYCQNGHSFPLTFGQGTKLEIK
81 nM | VH SEQ ID NO 642 / VL SEQ ID NO 318 (antibody, IgG4, V domains shown, humanized 11F2; IgG4 S228P/kappa) VH: QVQLQESGPGLVKPSQTLSLTCTVSGYSISSDSAWSWIRQPPGKGLEWIGYIYYSGSTNYNPSLKSRVTISVDTSKNQFSLKLSSVTAADTAVYYCARSVNYYGNSFAVGYWGQGTSVTVSS VL: EIVLTQSPATLSLSPGERATLSCRASQGISDYLHWYQQKPGEAPRLLIKYTSQPATGIPARFSGSGSGTDFTLTISSLEPEDFAVYYCQNGHSFPLTFGQGTKLEIK
600 nM | VH SEQ ID NO 642 / VL SEQ ID NO 382 (antibody, IgG4, V domains shown, humanized 11F2; IgG4 S228P/kappa) VH: QVQLQESGPGLVKPSQTLSLTCTVSGYSISSDSAWSWIRQPPGKGLEWIGYIYYSGSTNYNPSLKSRVTISVDTSKNQFSLKLSSVTAADTAVYYCARSVNYYGNSFAVGYWGQGTSVTVSS VL: EIVLTQSPATLSLSPGERATLSCRASQGLSDYLHWYQQKPGEAPRLLIKYASQPATGIPARFSGSGSGTDFTLTISSLEPEDFAVYYCQNGHSFPLTFGQGTKLEIK
47 nM | VH SEQ ID NO 642 / VL SEQ ID NO 470 (antibody, IgG4, V domains shown, humanized 11F2; IgG4 S228P/kappa) VH: QVQLQESGPGLVKPSQTLSLTCTVSGYSISSDSAWSWIRQPPGKGLEWIGYIYYSGSTNYNPSLKSRVTISVDTSKNQFSLKLSSVTAADTAVYYCARSVNYYGNSFAVGYWGQGTSVTVSS VL: EIVLTQSPATLSLSPGERATLSCRASQGVSDYLHWYQQKPGQAPRLLIKYASQPATGIPARFSGSGSGTDFTLTISSLEPEDFAVYYCQNGHSFPLTFGQGTKLEIK
10 nM | VH SEQ ID NO 642 / VL SEQ ID NO 494 (antibody, IgG4, V domains shown, humanized 11F2; IgG4 S228P/kappa) VH: QVQLQESGPGLVKPSQTLSLTCTVSGYSISSDSAWSWIRQPPGKGLEWIGYIYYSGSTNYNPSLKSRVTISVDTSKNQFSLKLSSVTAADTAVYYCARSVNYYGNSFAVGYWGQGTSVTVSS VL: EIVLTQSPATLSLSPGERATLSCRASQGVSDYLHWYQQKPGQAPRLLIKYASQPATGIPARFSGSGSGTDFTLTISSLEPEDVAVYYCQNGHSFPLTFGQGTKLEIK
540 nM | VH SEQ ID NO 642 / VL SEQ ID NO 430 (antibody, IgG4, V domains shown, humanized 11F2; IgG4 S228P/kappa) VH: QVQLQESGPGLVKPSQTLSLTCTVSGYSISSDSAWSWIRQPPGKGLEWIGYIYYSGSTNYNPSLKSRVTISVDTSKNQFSLKLSSVTAADTAVYYCARSVNYYGNSFAVGYWGQGTSVTVSS VL: EIVLTQSPATLSLSPGERATLSCRASQGVSDYLAWYQQKPGQAPRLLIKYASQPATGIPARFSGSGSGTDFTLTISSLEPEDFGVYYCQNGHSFPLTFGQGTKLEIK
1.2 nM | VH SEQ ID NO 650 / VL SEQ ID NO 318 (antibody, IgG4, V domains shown, humanized 11F2; IgG4 S228P/kappa) VH: QVQLQESGPGLVKPSQTLSLTCTVSGYSISSDSAWSWIRQPPGKKLEWIGYIQYSGSTNYNPSLKSRVTISRDTSKNQFSLKLSSVTAADTAVYYCARSVNYYGNSFAVGPWGQGTLVTVSS VL: EIVLTQSPATLSLSPGERATLSCRASQGISDYLHWYQQKPGEAPRLLIKYTSQPATGIPARFSGSGSGTDFTLTISSLEPEDFAVYYCQNGHSFPLTFGQGTKLEIK
33 nM | VH SEQ ID NO 642 / VL SEQ ID NO 438 (antibody, IgG4, V domains shown, humanized 11F2; IgG4 S228P/kappa) VH: QVQLQESGPGLVKPSQTLSLTCTVSGYSISSDSAWSWIRQPPGKGLEWIGYIYYSGSTNYNPSLKSRVTISVDTSKNQFSLKLSSVTAADTAVYYCARSVNYYGNSFAVGYWGQGTSVTVSS VL: EIVLTQSPATLSLSPGERATLSCRASQGVSDYLAWYQQKPGQAPRLLIKYASQPATGIPARFSGSGSGTDFTLTISSLEPEDVAVYYCQNGHSFPLTFGQGTKLEIK
320 nM | VH SEQ ID NO 642 / VL SEQ ID NO 358 (antibody, IgG4, V domains shown, humanized 11F2; IgG4 S228P/kappa) VH: QVQLQESGPGLVKPSQTLSLTCTVSGYSISSDSAWSWIRQPPGKGLEWIGYIYYSGSTNYNPSLKSRVTISVDTSKNQFSLKLSSVTAADTAVYYCARSVNYYGNSFAVGYWGQGTSVTVSS VL: EIVLTQSPATLSLSPGERATLSCRASQGISDYLHWYQQKPGQAPRLLIKYTSQPATGIPARFSGSGSGTDFTLTISSLEPEDFAVYYCQNGHSFPLTFGQGTKLEIK
40 nM | VH SEQ ID NO 642 / VL SEQ ID NO 342 (antibody, IgG4, V domains shown, humanized 11F2; IgG4 S228P/kappa) VH: QVQLQESGPGLVKPSQTLSLTCTVSGYSISSDSAWSWIRQPPGKGLEWIGYIYYSGSTNYNPSLKSRVTISVDTSKNQFSLKLSSVTAADTAVYYCARSVNYYGNSFAVGYWGQGTSVTVSS VL: EIVLTQSPATLSLSPGERATLSCRASQGISDYLHWYQQKPGQAPRLLIKYTSQPATGIPARFSGSGSGRDFTLTISSLEPEDFAVYYCQNGHSFPLTFGAGTKLELK
16 nM | VH SEQ ID NO 650 / VL SEQ ID NO 310 (antibody, IgG4, V domains shown, humanized 11F2; IgG4 S228P/kappa) VH: QVQLQESGPGLVKPSQTLSLTCTVSGYSISSDSAWSWIRQPPGKKLEWIGYIQYSGSTNYNPSLKSRVTISRDTSKNQFSLKLSSVTAADTAVYYCARSVNYYGNSFAVGPWGQGTLVTVSS VL: EIVLTQSPATLSLSPGERATLSCRASQGISDYLAWYQQKPGQAPRLLIKYASQPATGIPARFSGSGSGTDFTLTISSLEPEDFAVYYCQNGHSFPLTFGQGTKLEIK
23 nM | VH SEQ ID NO 642 / VL SEQ ID NO 326 (antibody, IgG4, V domains shown, humanized 11F2; IgG4 S228P/kappa) VH: QVQLQESGPGLVKPSQTLSLTCTVSGYSISSDSAWSWIRQPPGKGLEWIGYIYYSGSTNYNPSLKSRVTISVDTSKNQFSLKLSSVTAADTAVYYCARSVNYYGNSFAVGYWGQGTSVTVSS VL: EIVLTQSPATLSLSPGERATLSCRASQGISDYLHWYQQKPGEAPRLLIKYTSQPATGIPARFSGSGSGTDFTLTISSLEPEDFGVYYCQNGHSFPLTFGAGTKLELK
1000 nM | VH SEQ ID NO 642 / VL SEQ ID NO 334 (antibody, IgG4, V domains shown, humanized 11F2; IgG4 S228P/kappa) VH: QVQLQESGPGLVKPSQTLSLTCTVSGYSISSDSAWSWIRQPPGKGLEWIGYIYYSGSTNYNPSLKSRVTISVDTSKNQFSLKLSSVTAADTAVYYCARSVNYYGNSFAVGYWGQGTSVTVSS VL: EIVLTQSPATLSLSPGERATLSCRASQGISDYLHWYQQKPGQAPRLLIKYASQPATGIPARFSGSGSGTDFTLTISSLEPEDFAVYYCQNGHSFPLTFGQGTKLEIK
25 nM | VH SEQ ID NO 642 / VL SEQ ID NO 454 (antibody, IgG4, V domains shown, humanized 11F2; IgG4 S228P/kappa) VH: QVQLQESGPGLVKPSQTLSLTCTVSGYSISSDSAWSWIRQPPGKGLEWIGYIYYSGSTNYNPSLKSRVTISVDTSKNQFSLKLSSVTAADTAVYYCARSVNYYGNSFAVGYWGQGTSVTVSS VL: EIVLTQSPATLSLSPGERATLSCRASQGVSDYLHWYQQKPGEAPRLLIKYASQPATGIPARFSGSGSGTDFTLTISSLEPEDFAVYYCQNGHSFPLTFGQGTKLEIK
4.6 nM | VH SEQ ID NO 642 / VL SEQ ID NO 502 (antibody, IgG4, V domains shown, humanized 11F2; IgG4 S228P/kappa) VH: QVQLQESGPGLVKPSQTLSLTCTVSGYSISSDSAWSWIRQPPGKGLEWIGYIYYSGSTNYNPSLKSRVTISVDTSKNQFSLKLSSVTAADTAVYYCARSVNYYGNSFAVGYWGQGTSVTVSS VL: EIVLTQSPATLSLSPGERATLSCRASQGVSDYLHWYQQKPGQAPRLLIKYTSQPATGIPARFSGSGSGTDFTLTISSLEPEDFAVYYCQNGHSFPLTFGQGTKLEIK
11 nM | VH SEQ ID NO 642 / VL SEQ ID NO 478 (antibody, IgG4, V domains shown, humanized 11F2; IgG4 S228P/kappa) VH: QVQLQESGPGLVKPSQTLSLTCTVSGYSISSDSAWSWIRQPPGKGLEWIGYIYYSGSTNYNPSLKSRVTISVDTSKNQFSLKLSSVTAADTAVYYCARSVNYYGNSFAVGYWGQGTSVTVSS VL: EIVLTQSPATLSLSPGERATLSCRASQGVSDYLHWYQQKPGQAPRLLIKYASQPATGIPARFSGSGSGTDFTLTISSLEPEDFAVYYCQQGHSFPLTFGQGTKLEIK

Reference: US20220064329A1 (Novo Nordisk, published 2022)
